This note sets out measurements from publication PMC3101105 (Journal of the American Chemical Society, 2011).

In series [1] the target is fluoroacetate dehalogenase (FAcD) RPA1163 (Rhodopseudomonas palustris, UniProt Q6NAM1, F40A). The experiment in a line: isothermal microcalorimetry steady-state kinetics. The class given is biochemical. The note with it: read-out: Fluoroacetate / Km; 100 mM Tris-H2SO4 pH 8.5, 30°C.
For series [2], the target named is fluoroacetate dehalogenase (FAcD) RPA1163 (Rhodopseudomonas palustris, UniProt Q6NAM1, W185F). The experiment in a line: isothermal microcalorimetry steady-state kinetics. Format: biochemical. Particulars: read-out: Fluoroacetate / Km; 100 mM Tris-H2SO4 pH 8.5, 30°C.
Series [3] deals with fluoroacetate dehalogenase (FAcD) RPA1163 (Rhodopseudomonas palustris, UniProt Q6NAM1, Y219F). Nature of the series: isothermal microcalorimetry steady-state kinetics. The class given is biochemical. The note with it: read-out: Fluoroacetate / Km; 100 mM Tris-H2SO4 pH 8.5, 30°C.
In series [4] the target is fluoroacetate dehalogenase (FAcD) RPA1163 (Rhodopseudomonas palustris, UniProt Q6NAM1, H155N). The experiment in a line: isothermal microcalorimetry steady-state kinetics. The class given is biochemical. The note with it: read-out: Fluoroacetate / Km; 100 mM Tris-H2SO4 pH 8.5, 30°C.
The target of series [5] is fluoroacetate dehalogenase (FAcD) RPA1163 (Rhodopseudomonas palustris, UniProt Q6NAM1, W156H). The experiment in a line: isothermal microcalorimetry steady-state kinetics. The note with it: read-out: Fluoroacetate / Km; 100 mM Tris-H2SO4 pH 8.5, 30°C. The class given is biochemical.
Series [6] has as its system O=C(O)CCl. Nature of the series: isothermal microcalorimetry steady-state kinetics. Format: biochemical, Rhodopseudomonas palustris. The note with it: 100 mM Tris-H2SO4 pH 8.5, 30°C.
Series [7] concerns the molecule itself. Nature of the series: crystal structure.

Regarding `O=C(O)CF` [fluoroacetate], the Km came to 4400 ± 800 µM in series [1]; 3300 ± 600 µM in series [2]; 1700 ± 200 µM in series [3]; 2900 ± 200 µM in series [4]; 8000 ± 3000 µM in series [5].

By kcat is commonly meant the number of substrate molecules converted per active site and unit of time at saturation. As a reminder, the kcat/Km is the turnover number divided by the Michaelis constant. For “fluoroacetate dehalogenase (FAcD) RPA1163 (Rhodopseudomonas palustris CGA009; F40A)”, in series [6], the Km stood at 1500 ± 400 µM, the catalytic constant (kcat) is 0.000483 ± 0.00015 s⁻¹ and the kcat/Km amounted to 0.32 M⁻¹ s⁻¹.

In the case of “fluoroacetate dehalogenase (FAcD) RPA1163 (Rhodopseudomonas palustris CGA009; H155N)”, in series [6], the Km was determined as 2000 ± 300 µM, the turnover number (kcat) worked out at 0.0883 ± 0.00833 s⁻¹ and the kcat/Km amounted to 45 M⁻¹ s⁻¹.

As to “fluoroacetate dehalogenase (FAcD) RPA1163 (Rhodopseudomonas palustris CGA009; W156H)”, in series [6], the Km was found to be 6000 ± 1000 µM, the turnover number (kcat) is 0.00167 ± 0.000333 s⁻¹ and the kcat/Km was 0.27 M⁻¹ s⁻¹.

“fluoroacetate dehalogenase (FAcD) RPA1163 (Rhodopseudomonas palustris CGA009; W185F)”: in series [6], the Km was 1000 ± 300 µM, the kcat was 0.00533 ± 0.000667 s⁻¹ and the catalytic efficiency (kcat/Km) was 5 M⁻¹ s⁻¹.

Regarding “fluoroacetate dehalogenase (FAcD) RPA1163 (Rhodopseudomonas palustris CGA009; Y219F)”, in series [6], the Km amounted to 1000 ± 70 µM, the kcat is 0.007 ± 0.000667 s⁻¹ and the specificity constant (kcat/Km) was 7 M⁻¹ s⁻¹.

B1: fluoroacetate dehalogenase RPA1163 (wild type) (enzyme, Rhodopseudomonas palustris CGA009)
chain: MPDLADLFPGFGSEWINTSSGRIFARVGGDGPPLLLLHGFPQTHVMWHRVAPKLAERFKVIVADLPGYGWSDMPESDEQHTPYTKRAMAKQLIEAMEQLGHVHFALAGHDRGARVSYRLALDSPGRLSKLAVLDILPTYEYWQRMNRAYALKIYHWSFLAQPAPLPENLLGGDPDFYVKAKLASWTRAGDLSAFDPRAVEHYRIAFADPMRRHVMCEDYRAGAYADFEHDKIDVEAGNKIPVPMLALWGASGIAQSAATPLDVWRKWASDVQGAPIESGHFLPEEAPDQTAEALVRFFSAAP
Usually stoichiometry N stands for a count of units in the complex or per binding partner. For the molecule B1, the “stoichiometry N” value in series [7] was found to be 2.
